The values below come from US20250154261A1 (published 2025).

What all share (test): SPR captured Fab
Experiment [1] has as its target T1, V domain of human CD33 (human, UniProt P20138 18-139, limits assumed).
T1 construct: Whole entry named; also called Human CD33 V domain
Experimental: (§1) Kinetics and affinity of a series of Fab fragments of anti-CD33 antibodies with different CD33 variants (human CD33 ECD, cyno CD33 ECD, V-domain of human CD33, C-domain or human CD33 and selected CD33 SNPs) were assessed by surface plasmon resonance using Biacore 8K instrument (GE Healthcare). Anti-Fab antibody was immobilized on a CM5 chip using standard amine coupling chemistry. CD33 FABs were captured on the anti-Fab chip at a density of ˜100 RU. Solutions containing different concentrations of soluble monomeric CD33 or its domains were injected over the captured FABs and control surfaces at 30 μl/min at 37° C. Surfaces were regenerated between cycles by quick injection of 10 mM glycine, pH 1.8. To obtain kinetic rate constants double-referenced data were fit to a 1:1 interaction model using Biacore 8K Evaluation software (GE Healthcare). The equilibrium binding constant KD was determined by the ratio of binding rate constants kd/kₐ.

In another experiment the target is Human CD33 R69G (human, UniProt P20138 18-259).
The target of experiment [2] is T1, V domain of human CD33. The source holds these as a separate data set.
Experimental: as §1
The target of the next experiment is Human CD33 S128N (human, UniProt P20138 18-259).

Where two headings read alike, the source gives them in different places.

B1: ADI-11776 Fab (Fab, V domains shown)
VH: EVQLLESGGGLVQPGGSLRLSCAASGFTFSKYTMSWVRQAPGKGLEWVSAIVGSGESTYFADSVKGRFTISRDNSKNTLYLQMNSLRAEDTAVYYCAREGGPYYDSSGYFVYYGMDVWGQGTTVTVSS
VL: DIQMTQSPSTLSASVGDRVTITCRASQSISSWLAWYQQKPGKAPKLLIYKASSLESGVPSRFSGSGSGTEFTLTISSLQPDDFATYYCQQYDDLPTFGGGTKVEIK
notes: Fab fragment; also called Ab3; H76
One may read the koff as the rate constant with which the complex falls apart. One may read the Kd as the concentration at which binding is half-saturated. The kon is a measure of how fast the partners come together. A lower kon goes with slower complex formation. Consider B1, for which the results for the koff with V domain of human CD33 [1], in the experiment with Human CD33 R69G and with V domain of human CD33 [2] were 0.0143 s⁻¹, 0.000426 s⁻¹ and 0.0143 s⁻¹, respectively. In the experiment with Human CD33 R69G, this molecule registered a Kd of 0.22 nM. The kon with Human CD33 R69G stood at 1.98e+06 M⁻¹ s⁻¹.

B2: ADI-11826 Fab (Fab, V domains shown)
VH: EVQLVESGGGLVQPGGSLRLSCAASGFTFPGYWMSWVRQAPGKGLEWVANINQDGSEVYYVDSVKGRFTISRDNAKNSLYLQMNSLRAEDTAVYYCAREANYYGNVGDDYWGQGTLVTVSS
VL: DIQMTQSPSSLSASVGDRVTITCRASQSIYNYLNWYQQKPGKAPKLLIYAASSTQSGVPSRFSGSGSGTDFTLTISSLQPEDFATYYCQQAFHVPITFGGGTKVEIK
notes: Fab fragment; also called Ab26
Take B2: the koff turned out to be 0.00225 s⁻¹ with V domain of human CD33 [1], 0.00723 s⁻¹ with Human CD33 R69G, 0.00574 s⁻¹ in the experiment with Human CD33 S128N and 0.00225 s⁻¹ with V domain of human CD33 [2]. Also, the values for the equilibrium dissociation constant (Kd) with Human CD33 R69G and in the experiment with Human CD33 S128N were 3.83 nM and 2.65 nM, respectively. The results for the kon with Human CD33 R69G and with Human CD33 S128N were 1.89e+06 M⁻¹ s⁻¹ and 2.17e+06 M⁻¹ s⁻¹, respectively.
